The source of these data is publication PMC11901700, “A Sweet Almond Globulin Multifunctional Peptide: Identification, In Silico Screening, Restraint Mechanisms to Keap1 and ACE, and Antihypertensive and Ferrous Transport Efficiency” (Nutrients, 2025).

Where no end group is shown, it is not given here.

The target of data set [1] is T1, ACE (from rabbit lungs) (Oryctolagus cuniculus, UniProt P12822).
T1 construct: ACE (0.1 U, from rabbit lungs, purity > 99.7%, CAS: 9015-82-1) was obtained from Sigma-Aldrich; purchased Sigma-Aldrich (St. Louis, MO, USA); host or cells: rabbit lung tissue
T1 sequence (P12822 34-1310): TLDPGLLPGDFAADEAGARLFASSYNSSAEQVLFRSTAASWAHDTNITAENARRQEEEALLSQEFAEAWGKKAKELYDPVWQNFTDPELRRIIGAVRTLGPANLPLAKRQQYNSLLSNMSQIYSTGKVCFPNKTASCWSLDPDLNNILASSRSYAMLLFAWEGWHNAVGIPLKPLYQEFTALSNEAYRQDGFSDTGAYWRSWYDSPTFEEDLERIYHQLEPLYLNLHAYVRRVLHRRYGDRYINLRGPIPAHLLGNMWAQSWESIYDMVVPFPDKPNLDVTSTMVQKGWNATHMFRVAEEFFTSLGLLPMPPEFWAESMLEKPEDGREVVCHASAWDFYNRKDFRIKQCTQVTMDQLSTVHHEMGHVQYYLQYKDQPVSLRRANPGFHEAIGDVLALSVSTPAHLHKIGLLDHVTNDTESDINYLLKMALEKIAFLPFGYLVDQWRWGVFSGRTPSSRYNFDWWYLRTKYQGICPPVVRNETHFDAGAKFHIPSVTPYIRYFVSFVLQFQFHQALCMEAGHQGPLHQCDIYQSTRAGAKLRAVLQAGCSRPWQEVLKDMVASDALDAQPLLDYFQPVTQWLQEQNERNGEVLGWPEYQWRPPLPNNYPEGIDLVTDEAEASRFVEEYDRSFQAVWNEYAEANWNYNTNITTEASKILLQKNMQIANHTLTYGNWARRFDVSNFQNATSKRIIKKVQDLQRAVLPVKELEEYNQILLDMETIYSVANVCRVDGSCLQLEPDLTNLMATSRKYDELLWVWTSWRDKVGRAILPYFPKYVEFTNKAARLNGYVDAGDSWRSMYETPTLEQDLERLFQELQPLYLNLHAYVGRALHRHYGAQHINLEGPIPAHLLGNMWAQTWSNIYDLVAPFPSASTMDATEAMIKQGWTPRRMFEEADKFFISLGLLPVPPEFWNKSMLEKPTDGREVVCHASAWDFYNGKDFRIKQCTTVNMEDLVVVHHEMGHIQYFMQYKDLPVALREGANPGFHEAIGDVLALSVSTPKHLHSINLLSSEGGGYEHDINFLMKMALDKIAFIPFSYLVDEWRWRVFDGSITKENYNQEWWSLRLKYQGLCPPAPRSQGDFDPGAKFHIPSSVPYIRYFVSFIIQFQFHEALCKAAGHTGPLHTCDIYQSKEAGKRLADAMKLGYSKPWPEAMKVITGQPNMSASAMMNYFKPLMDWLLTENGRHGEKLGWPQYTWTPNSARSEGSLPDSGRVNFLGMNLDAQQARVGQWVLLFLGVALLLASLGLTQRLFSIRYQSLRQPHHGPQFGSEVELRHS
Briefly: ACE inhibitory kinetics (Lineweaver–Burk plot). Format: biochemical. The following applies: HHL 0.13–1.32 mmol/L as substrate, N = 3. An excerpt:
(§1) The hippuric acid method was used to measure the samples’ inhibitory ability towards ACE, following the same procedures as Zheng et al.. The absorbance at 228 nm was the hippuric acid content and represented ACE activity; therefore, the inhibitory ability of samples towards ACE was defined as the percentage of reduction in the absorption at 228 nm between the control and sample groups. Moreover, the ACE inhibitory kinetic of SAGH peptides was investigated by employing a Lineweaver–Burk plot with N-hippuryl-L-histidyl-L-leucine (HHL, 0.13–1.32 mmol/L) as the substrate.

Data set [2] is described as follows: Gastrointestinal stability of peptide–ferrous chelate (ferrous solubility in simulated digestion). The format is in vitro ADME. As for the experimental part: Next, the intestinal digestive fluid was added, and digestion was continued at pH 6.8 for 2 h in the EDZF-C002 thermostatic vibrator ([…], 175 rpm).
The nature of data set [3]: Superoxide radical scavenging activity (pyrogallol auto-oxidation method). The format is physicochemical. The following applies: at 100 μg/mL. The method, then: (§2) As described by Wang et al. and Vásquez et al., the hydroxyl (·OH) and superoxide ( O2−· ) radicals’ scavenging activity was measured using the β-deoxyribose oxidation and pyrogallol auto-oxidation methods, respectively. The comparison was conducted when the samples were replaced by glutathione (0.1 mg/mL).

For a further data set, the system named is Caco-2 cells. Briefly: Iron transmembrane absorption across Caco-2 cell monolayers. The format is in vitro ADME. The following applies: chelate 320 μg/mL, p < 0.05. As for the experimental part:
In a 24-well Transwell culture plate, Caco-2 cells (0.75 × 10^6 cells/cm^2) were cultivated using Dulbecco’s modified Eagle’s medium that contained fetal bovine serum (20 g/L), streptomycin (1 μg/μL), penicillin (1 μg/μL), and neomycin (1 μg/μL), and it was refreshed every 48 h. After 12–14 d of incubation at 5% CO2 and 37 °C, the transepithelial electrical resistance was more than 400 Ω·cm^2, and a monolayer Caco-2 cell mode was formed. Afterwards, the medium was removed, and Hank’s Balanced Salt Solution was added. After 30 min of cultivation at 5% CO2 and 37 °C, Hank’s Balanced Salt Solution was removed from the apical side, and SAGH peptide–ferrous chelates (320 μg/mL) were added and then cultivated at 5% CO2 and 37 °C for 150 min. Every 30 min, the ferrous amount of the basolateral-side cultivate solution was measured using the o-phenanthroline method.

Data set [4] has as its target T1, ACE (from rabbit lungs). The data set can be described thus: ACE inhibitory ability (hippuric acid method). The format is biochemical. The following applies: hippuric acid method, HHL substrate, absorbance at 228 nm; N = 3; read-out: ACE inhibitory activity (IC50).
From the text: as §1
As described by Wu et al., the simulative gastric digestive fluid consisted of sodium chloride (0.18 mol/L), ultrapure water (180 mL), and 0.40 mg/mL of pepsin. The simulation intestinal digestive juice was composed of NaHCO3, ([…]), bile salt (3 g/100 mL), pancreatin (0.35 mg/mL), and 180 mL of ultrapure water. The antihypertensive and antioxidant SAGH peptides (5 mg/mL, 60 mL) were first hydrolyzed using 150 mL of simulative gastric fluid at 37 °C and 140 rpm for 90 min. The mixture was adjusted to pH 7.0, and 180 mL of the simulative intestinal hydrolysis fluid was added and stirred at 37 °C for 2 h. After boiling for 6 min, the mixture was cooled with running water to room temperature. The ACE inhibition capacity and antioxidant ability of the treated SAGH peptides were detected and compared to those of the […] SAGH peptides.

A short description of data set [5]: Hydroxyl radical scavenging activity (β-deoxyribose oxidation method). Format: physicochemical. The following applies: at 100 μg/mL. The method, then:
as §2

Setting [6] is: listed as PMYGGGMV–ferrous chelates.

For the substance “PMYGGGMV–ferrous chelate: chelate prepared by reacting the peptide with FeCl2 at pH 6.5 (also: ferrous iron chelate (reaction with FeCl2))”, in the data set with ACE (from rabbit lungs) [1], the ACE inhibition mode entry is listed as “increased the Km value of the Michaelis–Menten kinetic curves but did not change the Vmax”. Moreover, the “ferrous solubility during gastric digestion” value in data set [2] (0–90 min, simulated gastric fluid pH 1.9, 37 °C, 175 rpm, soluble ferrous by o-phenanthroline every 30 min, N = 3) is “relatively stable”. Moreover, in data set [2] (91–240 min, intestinal digestive fluid pH 6.8, soluble ferrous by o-phenanthroline, p < 0.05), the “ferrous solubility during intestinal digestion” value is given as “apparently decreased”. The “ferrous solubility compared with ferrous lactate and ferrous chloride” value in data set [2] (from 90 to 150 min of simulated gastrointestinal digestion, p < 0.05) was “much higher than those of ferrous lactate and ferrous chloride”. In addition, the “Superoxide Radical Scavenging Ability (%) Before Gastrointestinal Digestion” value in data set [3] was determined as 75.49 ± 4.09 b %; in data set [3] (setting [6]), 75.49%. Besides, the “ability to improve ferrous transmembrane absorption” value with Caco-2 cells (Caco-2 monolayer, Transwell, TEER > 400 Ω·cm2, apical to basolateral, comparators 0.3 mg/mL, HBSS, 37 °C, 5% CO2, 150 min, o-phenanthroline every 30 min, N = 3) is “greater than that of ferrous chloride”. The “iron transport across the Caco-2 monolayer compared with ferrous lactate” value in the data set on Caco-2 cells (during 120–150 min, apical to basolateral, ferrous lactate 0.3 mg/mL) was “better”. For the same substance, the IC50 in the data set with ACE (from rabbit lungs) [4] came out at 116 µM. Moreover, the results for the “·OH Scavenging Activity (%) Before Gastrointestinal Digestion” value in data set [5] and in data set [5] (setting [6]) were 57.69 ± 0.07 d % and 60.04%, respectively.

As usually defined, the IC50 is the concentration needed to halve the response being measured.
